Patent US20120283184A1 (published 2012)
Substitutions are numbered along the chain they refer to.

B1: 1′DelE2 PR4 (designed binder)
chain: EVVAATPTSLLISWRHPHFPTRYYRITYGETGGNSPVQEFTVPLQPPTATISGLKPGVDYTITVYAVTVGQNDHELLTPISINYRT
B2: 2′Del F1 PR4 (designed binder)
chain: B1 chain with V69R, G70D, N72Y, D73E
B3: 2′DelH4 PR4 (designed binder)
chain: B1 chain with Q71P, D73E, H74R, E75M, L77M
B4: 1′DelE6 PR4 (designed binder)
chain: B1 chain with V69L, G70A, H74R
B5: 2′Del D10 PR4 (designed binder)
chain: B1 chain with V69L, G70A, Q71D, D73A, H74R
B6: 3B4 PR3 (designed binder)
chain: B1 chain with D73E
B7: 2′Del A11 PR4 (designed binder)
chain: B1 chain with V69E, G70D, Q71I, N72R, D73V, H74L, E75W, L77N, P79T
B8: 3B5 PR3 (designed binder)
chain: B1 chain with V69F, D73G, E75A
B9: 2′Del C6 PR4 (designed binder)
chain: B1 chain with V69M, Q71F, N72M, D73A, L77M, T78V
B10: 2′Del D5 PR4 (designed binder)
chain: B1 chain with G70A, Q71W, E75M, L77M
B11: 2′Del B2 PR4 (designed binder)
chain: B1 chain with V69T, Q71W, D73G, H74N, L77F
B12: 2′DelH9 PR4 (designed binder)
chain: B1 chain with Q71W, N72S, D73G, L77F, T78V
B13: 3A3 PR3 (designed binder)
chain: B1 chain with V69L, G70A, Q71Y, D73G, H74R, L76I, L77I
B14: 2′Del E6 PR4 (designed binder)
chain: B1 chain with V69M, Q71K, D73G
B15: 1′DelD5 PR4 (designed binder)
chain: B1 chain with D73H, L77F
B16: 1′DelH5 PR4 (designed binder)
chain: B1 chain with G70A, H74R, L77F
B17: 2′DelE4 PR4 (designed binder)
chain: B1 chain with G70H, Q71W, D73G, L77M
B18: 1′Del G10 PR4 (designed binder)
chain: B1 chain with V69M, G70A, D73G, E75K, L77M
B19: 2′Del B5 PR4 (designed binder)
chain: B1 chain with V69A, Q71R, N72H, L77I, T78I
B20: 2′Del F11 PR4 (designed binder)
chain: B1 chain with V69M, H74K, L77I
B21: 2′DelB7 PR4 (designed binder)
chain: B1 chain with Q71Y, D73N, H74R
B22: 2′Del C1 PR4 (designed binder)
chain: B1 chain with V69A, Q71L, N72D, D73E, T78I
B23: 2′DelC3 PR4 (designed binder)
chain: B1 chain with V69W, G70A, D73G, H74R
B24: 2′Del F7 PR4 (designed binder)
chain: B1 chain with V69L, Q71L, N72R, H74R, L77F, T78V
B25: 2′Del C11 PR4 (designed binder)
chain: B1 chain with V69A, Q71L, D73E, T78I
B26: 2′DelC7 PR4 (designed binder)
chain: B1 chain with V69W, G70D, D73G, E75V
B27: 2′Del H12 PR4 (designed binder)
chain: B1 chain with V69A, Q71G, D73G
B28: 2′Del G9 PR4 (designed binder)
chain: B1 chain with G70E, D73G, H74R, L77I, T78I
B29: 1′DelD1 PR4 (designed binder)
chain: B1 chain with G70T
B30: 1′DelE7 PR4 (designed binder)
chain: B1 chain with G70A, D73G, L77F
B31: 2′Del B4 PR4 (designed binder)
chain: B1 chain with V69S, Q71H, D73G, L76V, L77M
B32: 2′Del F8 PR4 (designed binder)
chain: B1 chain with V69A, Q71P, N72G, D73A
B33: 2′Del G11 PR4 (designed binder)
chain: B1 chain with V69G, N72M, D73N, H74R, E75V, L77M
B34: 2′Del F6 PR4 (designed binder)
chain: B1 chain with V69L, Q71W, L77Y, T78I
B35: 2′Del E5 PR4 (designed binder)
chain: B1 chain with V69E, Q71L, L77I, T78I
B36: 1′DelA2 PR4 (designed binder)
chain: B1 chain with G70A, D73G, E75Q, L77F
B37: 1′DelH12 PR4 (designed binder)
chain: B1 chain with G70A, D73E, H74R, L77F
B38: 2′Del E3 PR4 (designed binder)
chain: B1 chain with V69L, Q71P, N72Y, D73E
B39: 1′DelH10 PR4 (designed binder)
chain: B1 chain with V69F, G70A
B40: 1′DelF3 PR4 (designed binder)
chain: B1 chain with V69M, G70A, E75K, L77F
B41: 2′Del D1 PR4 (designed binder)
chain: B1 chain with V69L, G70E, H74R, E75V
B42: 2′Del B3 PR4 (designed binder)
chain: B1 chain with V69D, G70A, Q71P, D73G, H74R, L77M, T78V
B43: 2′DelA5 PR4 (designed binder)
chain: B1 chain with V69W, G70N, D73G, H74Q, L77F
B44: 2′Del C8 PR4 (designed binder)
chain: B1 chain with V69T, G70A, Q71H, D73G
B45: 2′Del A2 PR4 (designed binder)
chain: B1 chain with V69G, Q71R, D73G, E75T
B46: 2′Del H6 PR4 (designed binder)
chain: B1 chain with V69T, Q71H, N72H, L77I, T78I
B47: 2′Del C5 PR4 (designed binder)
chain: B1 chain with V69P, Q71H, L77M, T78V
B48: 2′Del F5 PR4 (designed binder)
chain: B1 chain with V69L, G70V, Q71H, H74R
B49: 2′Del H5 PR4 (designed binder)
chain: B1 chain with V69L, Q71K, N72D, D73V, H74R
B50: 2′Del D3 PR4 (designed binder)
chain: B1 chain with V69S, Q71L, H74R, E75V, L77F, T78I
B51: 2′DelG5 PR4 (designed binder)
chain: B1 chain with D73N
B52: 1′DelD2 PR4 (designed binder)
chain: B1 chain with G70A, Q71K
B53: 3A2 PR3 (designed binder)
chain: B1 chain with V69W, G70S, D73N, H74R, L77F
B54: 1′DelA1 PR4 (designed binder)
chain: B1 chain with G70A

Biological target: T1, human vascular endothelial growth factor receptor-2 Fc chimera (KDR-Fc) (human, UniProt P35968 20-764)
T1 construct: range 1-764; also called human VEGFR-2; not shown: human IgG1 Fc
T1 sequence (P35968 20-764 limits assumed, change not shown, form in doubt): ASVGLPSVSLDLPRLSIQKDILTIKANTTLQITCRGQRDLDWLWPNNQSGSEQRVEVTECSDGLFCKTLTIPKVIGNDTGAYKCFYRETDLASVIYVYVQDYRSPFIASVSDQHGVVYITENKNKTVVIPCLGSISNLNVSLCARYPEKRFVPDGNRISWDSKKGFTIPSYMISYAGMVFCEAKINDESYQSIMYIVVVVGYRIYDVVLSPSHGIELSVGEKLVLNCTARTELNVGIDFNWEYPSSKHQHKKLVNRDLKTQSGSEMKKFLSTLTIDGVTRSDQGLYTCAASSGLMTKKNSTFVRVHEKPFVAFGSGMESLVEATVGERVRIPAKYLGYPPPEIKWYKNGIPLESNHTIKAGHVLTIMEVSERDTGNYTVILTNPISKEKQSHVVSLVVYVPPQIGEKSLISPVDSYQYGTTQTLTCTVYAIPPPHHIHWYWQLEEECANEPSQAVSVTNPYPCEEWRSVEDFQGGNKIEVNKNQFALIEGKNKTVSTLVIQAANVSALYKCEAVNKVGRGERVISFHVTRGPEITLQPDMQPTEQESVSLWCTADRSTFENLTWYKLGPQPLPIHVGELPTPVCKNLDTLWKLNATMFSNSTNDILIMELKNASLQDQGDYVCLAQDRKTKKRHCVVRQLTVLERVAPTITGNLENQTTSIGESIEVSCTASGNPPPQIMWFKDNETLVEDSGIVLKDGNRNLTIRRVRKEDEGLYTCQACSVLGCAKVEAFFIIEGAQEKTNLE
Test: radioactive equilibrium binding, 1 nM KDR-Fc, % of input
Procedure: To prepare ³⁵S-labeled binding proteins for analysis, mRNA was prepared as described above for RNA-protein fusion production but the linker ligation step was omitted. The mRNA was expressed using rabbit reticulocyte lysate translation kit (Ambion) in the presence of ³⁵S-labeled Met at 30° C. for 1 hour. Expressed protein was purified on M2-agarose Flag beads (Sigma) as described above. This procedure produced the encoded protein without the nucleic acid tail. In a direct binding assay, VEGF-R2-Fc fusions in concentrations ranging from 0 to 200 nM were added to a constant concentration of the purified protein (0.2 or 0.5 nM) and incubated at 30° C. for 1 hour in buffer B. The receptor-binder complexes were captured using Protein A magnetic beads for another 10 minutes at room temperature using a Kingfisher™ The beads were washed with six reaction volumes of buffer B. The protein was eluted from the beads with 100 μL of 0.1 M KOH. 50 μL of the reaction mixture and elution were dried onto a LumaPlate-96 (Packard) and the amount of ³⁵S on the plate was measured using a TopCount NXT instrument (Packard). The amount of fibronectin-based scaffold protein bound to the target was estimated as a percent of radioactivity eluted from Protein A magnetic beads compare to radioactivity in the reaction mixture. Nonspecific binding of fibronectin-based scaffold proteins to the beads was determined by measuring binding in the absence of KDR-Fc and represented less than 1-2% of the input. Specific binding was obtained through subtraction of nonspecific binding from total binding. Data was analyzed using the GraphPad Prizm software (GraphPad Software, Inc, San Diego, Calif.), fitted using a one site, non-linear binding equation.

Binder	Binding to 1 nM KDR, % [%]
B1	16
B2	20
B3	30
B4	24
B5	34
B6	17
B7	16
B8	20
B9	34
B10	18
B11	29
B12	20
B13	23
B14	43
B15	17
B16	17
B17	34
B18	36
B19	33
B20	27
B21	32
B22	32
B23	29
B24	38
B25	34
B26	19
B27	24

Binder	Binding to 1 nM KDR, % [%]
B28	33
B29	16
B30	22
B31	31
B32	42
B33	22
B34	22
B35	19
B36	23
B37	18
B38	33
B39	17
B40	16
B41	28
B42	17
B43	20
B44	15
B45	17
B46	28
B47	26
B48	22
B49	34
B50	38
B51	19
B52	17
B53	23
B54	14
